Data taken from patent US20160000910A1 (AC IMMUNE S A, published 2016).

T1: biotinylated Aβ17-40 peptide (biotinylated (position not given))
T1 construct: Peptide from Anaspec
T1 peptide: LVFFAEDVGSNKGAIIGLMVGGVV

B1: mouse monoclonal antibody ACI-11-Ab-9 (antibody, V domains shown)
VH: QVQLQQSDAELVKPGASVKISCKVSGYTFTDHTIHWMKQRPEQGLEWIGYIYPRDGSTKYNEKFKGKATLTADKSSSTAYMQLNSLTSEDSAVYFCARDYGYAFDYWGQGTTLTVSS
VL: QAVVTQESALTTSPGGTVILTCRSSTGAVTTSNYANWVQEKPDHLFTGLIGGTSNRAPGVPVRFSGSLIGDKAALTITGAQTEDDAMYFCALWYSTHYVFGGGTKVTVL
notes: also called clone FG1F9E4; DSM ACC2845
B2: mouse monoclonal antibody ACI-12-Ab-11 (antibody, V domains shown)
VH: QVQLQQSDAELVKPGASVKISCKVSGYTFTDHTIHWMKQRPEQGLEWIGYIYPRDGSTKYNEKFKGKATLTADKSSSTAYMQLNSLTSEDSAVYFCARDYGYAFDYWGQGTTLTVSS
VL: QAVVTQESALTTSPGGTVILTCRSSTGAVTTSNYANWVQEKPDHLFTGLIGGTSNRAPGVPVRFSGSLIGDKAALTITGAQTEDDAMYFCALWYSTHYVFGGGTKVTVL
notes: also called clone FK2A6A6; DSM ACC2846

Experiments:
[1] = biological target: Aβ1-42 peptide (Thioflavin T assay); test: cell-based or functional assay
Aβ1-42 library peptide 1 = test: peptide library ELISA, 10 µg/ml mAb
Text: (§1) The peptides in the peptide library were composed of 8, 9 or 10-mer aa peptides. A biotinylated complete Aβ1-42 peptide (human sequence) was used as positive control (Bachem, Bubendorf, Switzerland). In addition, longer peptides covering Aβ1-28, Aβ17-40, Aβ1-40 and Aβ1-42 were used to define the broader region to which these antibodies may bind. These 4 peptides were also biotinlyated (manufactured by Anaspec and purchased from ANAWA Trading SA, Switzerland). Epitope mapping was done according to the manufacturer's (Mimotopes) instructions. Briefly, Streptavidin coated plates (NUNC, Roskilde, Denmark) were blocked with 0.1% BSA in PBS overnight at 4° C. After washing with PBS-0.05% Tween 20, plates were coated for 1 hour at RT with the different peptides from the library, diluted in 0.1% BSA, 0.1% Sodium Azide in PBS to a final concentration of 10 μM. […] Plates were washed again and incubated with alkaline phosphatase conjugated goat anti mouse IgG (Jackson Immunresearch West Grove, Pa., USA) for 1 h at RT. After final washing, plates were incubated with phosphatase substrate (pNPP, Sigma-Aldrich, St Louis, Mo., USA) and read after 3 hours of incubation at 405 nm using an ELISA plate reader.

Aβ1-42 library peptide 2 = test: peptide library ELISA, 10 µg/ml mAb
Text: as §1

Aβ1-42 library peptide 3 = test: peptide library ELISA, 10 µg/ml mAb
Text: as §1

Aβ1-42 library peptide 4 = test: peptide library ELISA, 10 µg/ml mAb
Text: as §1

Aβ1-42 library peptide 5 = test: peptide library ELISA, 10 µg/ml mAb
Text: as §1

Aβ1-42 library peptide 6 = test: peptide library ELISA, 10 µg/ml mAb
Text: as §1

Aβ1-42 library peptide 7 = test: peptide library ELISA, 10 µg/ml mAb
Text: as §1

Aβ1-42 library peptide 8 = test: peptide library ELISA, 10 µg/ml mAb
Text: as §1

Aβ1-42 library peptide 9 = test: peptide library ELISA, 10 µg/ml mAb
Text: as §1

[2] = biological target: Aβ1-42 library peptide 10; test: peptide library ELISA, 10 µg/ml mAb
Text: as §1

[3] = biological target: Aβ1-42 library peptide 11; test: peptide library ELISA, 10 µg/ml mAb
Text: as §1

[4] = biological target: Aβ1-42 library peptide 12; test: peptide library ELISA, 10 µg/ml mAb
Text: as §1

[5] = biological target: Aβ1-42 library peptide 13; test: peptide library ELISA, 10 µg/ml mAb
Text: as §1

[6] = biological target: Aβ1-42 library peptide 14; test: peptide library ELISA, 10 µg/ml mAb
Text: as §1

[7] = biological target: Aβ1-42 library peptide 15; test: peptide library ELISA, 10 µg/ml mAb
Text: as §1

[8] = biological target: Aβ1-42 library peptide 16; test: peptide library ELISA, 10 µg/ml mAb
Text: as §1

[9] = biological target: Aβ1-42 library peptide 17; test: peptide library ELISA, 10 µg/ml mAb
Text: as §1

[10] = biological target: Aβ1-42 library peptide 18; test: peptide library ELISA, 10 µg/ml mAb
Text: as §1

[11] = biological target: Aβ1-42 library peptide 19; test: peptide library ELISA, 10 µg/ml mAb
Text: as §1

[12] = biological target: Aβ1-42 library peptide 20; test: peptide library ELISA, 10 µg/ml mAb
Text: as §1

[13] = biological target: Aβ1-42 library peptide 21; test: peptide library ELISA, 10 µg/ml mAb
Text: as §1

[14] = biological target: Aβ1-42 library peptide 22; test: peptide library ELISA, 10 µg/ml mAb
Text: as §1

[15] = biological target: Aβ1-42 library peptide 23; test: peptide library ELISA, 10 µg/ml mAb
Text: as §1

[16] = biological target: Aβ1-42 library peptide 24; test: peptide library ELISA, 10 µg/ml mAb
Text: as §1

[17] = biological target: Aβ1-42 library peptide 25; test: peptide library ELISA, 10 µg/ml mAb
Text: as §1

[18] = biological target: Aβ1-42 library peptide 26; test: peptide library ELISA, 10 µg/ml mAb
Text: as §1

[19] = biological target: Aβ1-42 library peptide 27; test: peptide library ELISA, 10 µg/ml mAb
Text: as §1

[20] = biological target: Aβ1-42 library peptide 28; test: peptide library ELISA, 10 µg/ml mAb
Text: as §1

[21] = biological target: Aβ1-42 library peptide 29; test: peptide library ELISA, 10 µg/ml mAb
Text: as §1

[22] = biological target: Aβ1-42 library peptide 30; test: peptide library ELISA, 10 µg/ml mAb
Text: as §1

[23] = biological target: Aβ1-42 library peptide 31; test: peptide library ELISA, 10 µg/ml mAb
Text: as §1

[24] = biological target: Aβ1-42 library peptide 32; test: peptide library ELISA, 10 µg/ml mAb
Text: as §1

[25] = biological target: Aβ1-42 library peptide 33; test: peptide library ELISA, 10 µg/ml mAb
Text: as §1

[26] = biological target: T1, biotinylated Aβ17-40 peptide; test: ELISA, biotinylated peptide on streptavidin plate
Text: as §1

[27] = biological target: T1, biotinylated Aβ17-40 peptide; test: ELISA, biotinylated peptide (Anaspec) on streptavidin plate, 10 µg/ml mAb
Text: as §1

[28] = biological target: T2, biotinylated Aβ1-40 peptide (biotinylated (position not given)); test: as above
T2 construct: Peptide from Anaspec; also called Ab1-40
Text: as §1

[29] = biological target: T3, biotinylated complete Aβ1-42 peptide (human sequence) (human, biotinylated (position not given)); test: peptide library ELISA, complete Aβ1-42 (Bachem) as positive control, 10 µg/ml mAb
T3 construct: Same peptide from two suppliers (1-42A Anaspec, 1-42B Bachem); the supplier is named under assay; also called Ab1-42; 1-42A (Anaspec)
Text: as §1

Sequence of Aβ1-42 peptide (Thioflavin T assay) (peptide, as listed by the source): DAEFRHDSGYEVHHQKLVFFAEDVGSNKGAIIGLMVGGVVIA
T3 sequence (peptide, as listed by the source): as above

Row | Binder | disaggregation of pre-aggregated Aβ1-42, Thioflavin T fluorescence, antibody to Aβ1-42 molar ratio 1:10 [1] [%] | disaggregation of pre-aggregated Aβ1-42, Thioflavin T fluorescence, antibody to Aβ1-42 molar ratio 1:100 [1] [%] | inhibition of Aβ1-42 aggregation, Thioflavin T fluorescence, antibody to Aβ1-42 molar ratio 1:10 [1] [%] | inhibition of Aβ1-42 aggregation, Thioflavin T fluorescence, antibody to Aβ1-42 molar ratio 1:100 [1] [%] | O.D. (Aβ1-42 library peptide 1) [O.D.] | O.D. (Aβ1-42 library peptide 2) [O.D.] | O.D. (Aβ1-42 library peptide 3) [O.D.] | O.D. (Aβ1-42 library peptide 4) [O.D.] | O.D. (Aβ1-42 library peptide 5) [O.D.] | O.D. (Aβ1-42 library peptide 6) [O.D.] | O.D. (Aβ1-42 library peptide 7) [O.D.] | O.D. (Aβ1-42 library peptide 8) [O.D.] | O.D. (Aβ1-42 library peptide 9) [O.D.] | O.D. [2] [O.D.] | O.D. [3] [O.D.] | O.D. [4] [O.D.] | O.D. [5] [O.D.] | O.D. [6] [O.D.] | O.D. [7] [O.D.] | O.D. [8] [O.D.] | further results
1 | B1 | 52 | 22 | 69 | 34 | 0.1 | 0.1 | 0.12 | 0.11 | 0.11 | 0.11 | 0.11 | 0.11 | 0.11 | 0.13 | 0.11 | 0.24 | 0.17 | 0.16 | 0.14 | 0.14 | O.D. [9]: 0.13 O.D.; O.D. [10]: 0.11 O.D.; O.D. [11]: 0.1 O.D.; O.D. [12]: 0.1 O.D.; O.D. [13]: 0.1 O.D.; O.D. [14]: 0.1 O.D.; O.D. [15]: 0.11 O.D.; O.D. [16]: 0.1 O.D.; O.D. [17]: 0.11 O.D.; O.D. [18]: 0.12 O.D.; O.D. [19]: 0.13 O.D.; O.D. [20]: 0.12 O.D.; O.D. [21]: 0.2 O.D.; O.D. [22]: 0.11 O.D.; O.D. [23]: 0.12 O.D.; O.D. [24]: 0.12 O.D.; O.D. [25]: 0.11 O.D.; binding result [26]: no binding (tested: 10 µg/ml); O.D. after background subtraction (mean) [27]: 0.02 O.D.; O.D. after background subtraction (mean) [28]: 1.02 O.D.
2 | B2 | 54 | 18 | 66 | 30 | 0.1 | 0.1 | 0.11 | 0.1 | 0.1 | 0.1 | 0.1 | 0.1 | 0.1 | 0.1 | 0.11 | 0.21 | 0.15 | 0.12 | 0.1 | 0.14 | O.D. [9]: 0.12 O.D.; O.D. [10]: 0.1 O.D.; O.D. [11]: 0.1 O.D.; O.D. [12]: 0.1 O.D.; O.D. [13]: 0.09 O.D.; O.D. [14]: 0.1 O.D.; O.D. [15]: 0.1 O.D.; O.D. [16]: 0.1 O.D.; O.D. [17]: 0.11 O.D.; O.D. [18]: 0.12 O.D.; O.D. [19]: 0.12 O.D.; O.D. [20]: 0.11 O.D.; O.D. [21]: 0.11 O.D.; O.D. [22]: 0.11 O.D.; O.D. [23]: 0.11 O.D.; O.D. [24]: 0.11 O.D.; O.D. [25]: 0.11 O.D.; O.D. after background subtraction (mean) [27]: -0.02 O.D.; O.D. after background subtraction (mean) [28]: 0.62 O.D.; O.D. [29]: 0.69 O.D.
